This is an account of results in patent US20020192214A1 (published 2002).

To fix the notation:
T1: human eosinophil eotaxin receptor CC CKR3, stably expressed in AML14.3D10 cells (human, UniProt P51677 1-355)
T1 sequence: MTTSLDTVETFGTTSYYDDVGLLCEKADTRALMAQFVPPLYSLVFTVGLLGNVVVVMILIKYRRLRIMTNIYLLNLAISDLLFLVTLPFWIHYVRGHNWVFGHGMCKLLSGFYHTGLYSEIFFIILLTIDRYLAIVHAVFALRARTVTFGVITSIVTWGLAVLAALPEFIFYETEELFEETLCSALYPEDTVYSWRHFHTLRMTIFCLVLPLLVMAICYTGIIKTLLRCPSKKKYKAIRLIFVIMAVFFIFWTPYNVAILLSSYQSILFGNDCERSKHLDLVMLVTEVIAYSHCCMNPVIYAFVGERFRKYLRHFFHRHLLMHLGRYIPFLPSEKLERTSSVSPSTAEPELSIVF

T2: endogenous eosinophil eotaxin receptor (CC CKR3) on primary human eosinophils (human, UniProt P51677 1-355)
T2 construct: The target as printed is 'eosinophils' (primary cells from allergic and asthmatic donors); It also says eosinophils express a much lower level of CC CKR1; also called primary eosinophils
T2 sequence: T1 sequence

B1: MIP-1α (ligand, UniProt P10147 24-92, looked up)
chain: SLAADTPTACCFSYTSRQIPQNFIADYFETSSQCSKPGVIFLTKRSRQVCADPSEEWVQKYVSDLELSA
notes: also called macrophage inflammatory protein 1α
B2: MIP-1β (ligand, UniProt P13236 24-92, looked up)
chain: APMGSDPPTACCFSYTARKLPRNFVVDYYETSSLCSQPAVVFQTKRSKQVCADPSESWVQEYVYDLELN
notes: also called macrophage inflammatory protein 1β
B3: RANTES (ligand, UniProt P13501 24-91, looked up)
chain: SPYSSDTTPCCFAYIARPLPRAHIKEYFYTSGKCSNPAVVFVTRKNRQVCANPEKKWVREYINSLEMS
B4: human eotaxin (ligand)
chain: not shown
B5: MCP-3 (ligand)
chain: not shown
B6: murine eotaxin (ligand, UniProt P48298 24-97, looked up)
chain: HPGSIPTSCCFIMTSKKIPNTLLKSYKRITNNRCTLKAIVFKTRLGKEICADPKKKWVQDATKHLDQKLQTPKP

The target in the first assay is T1, human eosinophil eotaxin receptor CC …. As to the kind of experiment: cell-based or functional assay.
In the case of B1, the “Ca^2+-flux (intracellular Ca^2+ levels)” value was over 1 µM.
On to B2, for which the “Ca^2+-flux (intracellular Ca^2+ levels)” value is over 1 µM.

Another assay addresses T2, endogenous eosinophil eotaxin receptor …. Kind of assay: competition against 125I-MCP-3, primary eosinophils. How it is done:
(§1) To provide additional pharmacological evidence, binding studies were conducted on primary eosinophils. […] The number of binding sites varied by less than 2-fold for the 3 donors used in the studies. […] Similarly, the Kd's obtained by competition against ¹²⁵I-MCP-3 on eosinophils are effectively indistinguishable to those measured against cloned CC CKR3 (see Table 1). All of the observations and measurements, taken together with the Western blot showing expression of CC CKR3, verify that CC CKR3 is the eosinophil eotaxin receptor, and appears to be largely responsible for mediating the effects of most β-chemokines on eosinophils.
(§2) Competition binding experiments were carried out against the indicated iodinated ligand as follows and as described herein. Equilibrium binding of β-chemokines to AML14.3D10 cells expressing CC CKR3 and to primary eosinophils was examined with increasing concentrations of unlabelled human eotaxin, murine eotaxin, RANTES, MCP-3, or MCP-1 to compete against fixed concentrations of either ¹²⁵I-human eotaxin, or ¹²⁵I-MCP-3. Also the competition with 100 nM concentrations of MIP-1α, and MIP-1β was examined. The experiments were carried out either with AML14.3D10 cells expressing CC CKR3, or with eosinophils. All values are the averages of triplicate determinations. Typically, 4000-6000 cpm of iodinated ligand was bound in the absence of compeititor with S/N ratios exceeding 15. Human and murine eotaxin are the human and murine chemokines, respectively. “N.B.” means that no competition was observed. All results are the averages of the number of experiments shown in parenthesis.
A word on the Kd: it is the free concentration of one partner at which half of the binding sites on the other are occupied at equilibrium, for simple one-to-one binding. Consider B3, for which the Kd was found to be 0.9 nM.
On the same count and under the same terms, the same measure for B4: 0.2 nM; for B5: 1.1 nM.
On the same count and under the same terms, then B6, with 0.2 nM.

For a further assay the target is unchanged. Kind of assay: competition against 125I-human eotaxin, primary eosinophils. The method, then: as §1, §2
For B3, the dissociation constant (Kd) came to 2.6 nM.
Still for that read-out and setting: the same measure for B4: 0.1 nM.
The same measure, in the same setting: then B5, with 3 nM; and B6, with 0.1 nM.

For another assay the target is unchanged. Kind of assay: competition against 125I-human eotaxin on primary eosinophils. The method, then:
as §1
Competition binding experiments were carried out against the indicated iodinated ligand as follows and as described herein. Equilibrium binding of β-chemokines to AML14.3D10 cells expressing CC CKR3 and to primary eosinophils was examined with increasing concentrations of unlabelled human eotaxin, murine eotaxin, RANTES, MCP-3, or MCP-1 to compete against fixed concentrations of either ¹²⁵I-human eotaxin, or ¹²⁵I-MCP-3. Also the competition with 100 nM concentrations of MIP-1α, and MIP-1β was examined. The experiments were carried out either with AML14.3D10 cells expressing CC CKR3, or with eosinophils. All values are the averages of triplicate determinations. […]
Take B1: the binding result is reported as “no binding (tested: 100 nM)”.
Same read-out and setting: the same measure for B2: “no binding (tested: 100 nM)”.

The next assay addresses T1, human eosinophil eotaxin receptor CC …. Kind of assay: competition against 125I-MCP-3, intact AML14.3D10 cells expressing CC CKR3. How it is done:
Competition studies were also carried out against ¹²⁵I-MCP-3. […] Thus despite some small quantitative differences the overall ligand selectivity of the receptor is the same whether measured by competition against eotaxin or MCP-3, and the order of potency, eotaxin>MCP-3=RANTES>>MCP-1, is identical.
as §2
In the case of B3, the dissociation constant (Kd) was 0.5 nM.
The same measure, in the same setting: the same measure for B4: 0.2 nM; for B5: 0.7 nM.
Still for that read-out and setting: the same measure for B6: 0.3 nM.

For another assay the target is unchanged. Kind of assay: competition against 125I-human eotaxin on AML14.3D10 cells expressing CC CKR3. The method, then: (§3) Results with murine eotaxin were essentially identical. […] Clearly, CC CKR3 is a high affinity receptor for eotaxin.
as §2
On to B1, for which the binding result was “no binding (tested: 100 nM)”.
Same read-out and setting: the same measure for B2: “no binding (tested: 100 nM)”.

Another assay has the same target. Kind of assay: competition against 125I-human eotaxin, intact AML14.3D10 cells expressing CC CKR3. How it is done: as §3, §2
Turning to B3, the Kd was 3.1 nM.
On the same count and under the same terms, then B4, with 0.1 nM.
The same measure, in the same setting: then B5, with 2.7 nM; and B6, with 0.1 nM.
